In article PMC12400196, “Triosephosphate isomerase from Fasciola hepatica: high-resolution crystal structure as a drug target” (Acta Crystallographica Section F: Structural Biology …, 2025):

Molecular target: the molecule itself
Assay: SEC; HiLoad 16/600 Superdex 200 pg, 25 mM Tris, 300 mM NaCl pH 7.0, 277 K; preparative step after IMAC

B1: Triosephosphate isomerase from Fasciola hepatica (enzyme)
chain: MASNRKFFVGGNWKMNGSKESNQKLLKTLSDAKPDANTEILVAVPFVYLKDVREHLDKRFHVAAQNCYKVASGAFTGEISPAMIRDCGCEWVILGHSERRHIFGESDELIGEKVNHALTCGLKVVPCIGEKLDEREAGKTEQVCFRQLDAIKKGIPKAEDWSRVVIAYEPVWAIGTGKTASPEQAQEVHHAVRQWLEKNVSQAVASSLRITYGGSVTAANCKELAKKPDVDGFLVGGASLKPEFVDICNANRG
notes: triosephosphate isomerase (EC 5.3.1.1), Fasciola hepatica; gene in plasmid pET-46 Ek/LIC; The plasmid was provided by D. Timson (construct of Zinsser et al., 2013); also called FhTPI; F. hepatica TPI; source: E. coli Rosetta (DE3), purified (IMAC, SEC)
B1 was tested, and the “stoichiometry N” value was 2.
